Test results from paper PMC5414581 (Neuropharmacology, 2017).
Where no end group is shown, it is not given here. Me2 = N,N-dimethyl-lysine

T1: mouse NPS receptor (mouse) (UniProt Q8BZP8)
T1 sequence: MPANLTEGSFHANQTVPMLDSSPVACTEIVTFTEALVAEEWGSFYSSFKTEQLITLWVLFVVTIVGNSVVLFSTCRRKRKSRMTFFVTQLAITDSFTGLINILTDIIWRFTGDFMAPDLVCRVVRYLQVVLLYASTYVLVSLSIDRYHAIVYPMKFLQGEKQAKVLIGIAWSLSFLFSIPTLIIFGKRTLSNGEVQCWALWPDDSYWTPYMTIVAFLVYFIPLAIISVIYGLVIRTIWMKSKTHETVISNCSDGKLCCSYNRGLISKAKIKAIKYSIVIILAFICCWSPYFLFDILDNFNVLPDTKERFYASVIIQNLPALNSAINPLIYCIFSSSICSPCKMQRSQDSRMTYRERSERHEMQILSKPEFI

T2: human NPS receptor, 107N variant (human) (UniProt Q6W5P4)
T2 sequence: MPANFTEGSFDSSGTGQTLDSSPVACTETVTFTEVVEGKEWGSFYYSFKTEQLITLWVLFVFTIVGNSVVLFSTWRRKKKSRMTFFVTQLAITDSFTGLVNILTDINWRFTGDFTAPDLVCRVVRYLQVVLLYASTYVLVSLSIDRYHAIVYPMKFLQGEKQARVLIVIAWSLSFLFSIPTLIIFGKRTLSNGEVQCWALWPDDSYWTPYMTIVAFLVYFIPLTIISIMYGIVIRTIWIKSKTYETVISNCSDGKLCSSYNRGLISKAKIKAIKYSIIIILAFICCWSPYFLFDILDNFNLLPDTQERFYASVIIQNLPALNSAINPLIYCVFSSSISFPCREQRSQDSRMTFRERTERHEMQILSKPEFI

T3: human NPS receptor, 107I variant (human) (UniProt Q6W5P4)
T3 sequence: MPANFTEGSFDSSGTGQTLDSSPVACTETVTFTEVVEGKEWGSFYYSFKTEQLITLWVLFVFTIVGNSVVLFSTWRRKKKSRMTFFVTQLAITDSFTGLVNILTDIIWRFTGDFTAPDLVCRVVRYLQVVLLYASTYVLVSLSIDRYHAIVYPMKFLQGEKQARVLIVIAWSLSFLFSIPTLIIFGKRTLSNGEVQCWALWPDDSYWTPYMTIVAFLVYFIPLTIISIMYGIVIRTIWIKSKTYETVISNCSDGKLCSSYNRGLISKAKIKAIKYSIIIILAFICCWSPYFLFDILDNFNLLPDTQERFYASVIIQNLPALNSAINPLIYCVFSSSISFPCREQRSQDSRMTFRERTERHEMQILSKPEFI


Assays:
[1] = biological target: T1, mouse NPS receptor (mouse)
[2] = biological target: T2, human NPS receptor, 107N variant (human)
[3] = biological target: T3, human NPS receptor, 107I variant (human)

Binder | EC50 of cAMP accumulation, HEK 293T mNPSR cells [1] | EC50 of calcium mobilization, HEK 293T mNPSR cells [1] | EC50 of cAMP accumulation, HEK 293T hNPSR-107N cells [2] | EC50 of cAMP accumulation, HEK 293T hNPSR-107I cells [3] | EC50 of calcium mobilization, CHO-Gα16 hNPSR-107I cells [3] | EC50 of calcium mobilization, CHO-Gα16 hNPSR-107N cells [2]
SFRNG-NH2 [2. SerPheArgAsnGly-NH2] | > 10000 nM | 1010 nM | > 10000 nM | 3060 nM |  | 
SFKN-NH2 [4. SerPheLysAsn-NH2] | 911 nM | 100 nM |  | 117 nM | 3.02 nM | 
SFK(Me2)N-NH2 [5. SerPheDimethylLysAsn-NH2] |  |  |  |  | 43.5 nM | 
SFRNGV-NH2 [1. SerPheArgAsnGlyVal-NH2] | 13.4 nM | 2.03 nM | 427 nM | 1.95 nM |  | 

Next, values leading:

EC50 of cAMP accumulation, HEK 293T mNPSR cells [1] | EC50 of calcium mobilization, HEK 293T mNPSR cells [1] | EC50 of cAMP accumulation, HEK 293T hNPSR-107N cells [2] | EC50 of cAMP accumulation, HEK 293T hNPSR-107I cells [3] | EC50 of calcium mobilization, CHO-Gα16 hNPSR-107I cells [3] | EC50 of calcium mobilization, CHO-Gα16 hNPSR-107N cells [2] | Binder
 |  |  |  | 563 nM |  | SFK(trifluoroacetyl)N-NH2 [6. SerPheLysCOCF3Asn-NH2]
3.67 nM | 5.55 nM | 48.9 nM | 4.19 nM | 0.59 nM | 2 nM | SFRNGVGTGMKKTSFQRAKS [Neuropeptide S]
